According to US20170088632A1 (OMEROS, published 2017):

B1: MoAb #1 (OMS641), 17N16m_d17N9 IgG2 (antibody)
heavy: QVQLQQSGPGLVKPSQTLSLTCAISGDSVSSTSAAWNWIRQSPSRGLEWLGRTYYRSKWYNDYAVSVKSRITINPDTSKNQFSLQLNSVTPEDTAVYYCARDPFGVPFDIWGQGTMVTVSSASTKGPSVFPLAPCSRSTSESTAALGCLVKDYFPEPVTVSWNSGALTSGVHTFPAVLQSSGLYSLSSVVTVPSSNFGTQTYTCNVDHKPSNTKVDKTVERKCCVECPPCPAPPVAGPSVFLFPPKPKDTLMISRTPEVTCVVVDVSHEDPEVQFNWYVDGVEVHNAKTKPREEQFNSTFRVVSVLTVVHQDWLNGKEYKCKVSNKGLPAPIEKTISKTKGQPREPQVYTLPPSREEMTKNQVSLTCLVKGFYPSDIAVEWESNGQPENNYKTTPPMLDSDGSFFLYSKLTVDKSRWQQGNVFSCSVMHEALHNHYTQKSLSLSPGK
light: SYELIQPPSVSVAPGQTATITCAGDNLGKKRVHWYQQRPGQAPVLVIYDDSDRPSGIPDRFSASNSGNTATLTITRGEAGDEADYYCQVWDIATDHVVFGGGTKLTVLGQPKAAPSVTLFPPSSEELQANKATLVCLISDFYPGAVTVAWKADSSPVKAGVETTTPSKQSNNKYAASSYLSLTPEQWKSHRSYSCQVTHEGSTVEKTVAPTECS
notes: also called MoAb#1 (IgG2); 17N16_17N9
B2: MoAb #2 (OMS642), 17N16m_d17N9 IgG4 (antibody)
heavy: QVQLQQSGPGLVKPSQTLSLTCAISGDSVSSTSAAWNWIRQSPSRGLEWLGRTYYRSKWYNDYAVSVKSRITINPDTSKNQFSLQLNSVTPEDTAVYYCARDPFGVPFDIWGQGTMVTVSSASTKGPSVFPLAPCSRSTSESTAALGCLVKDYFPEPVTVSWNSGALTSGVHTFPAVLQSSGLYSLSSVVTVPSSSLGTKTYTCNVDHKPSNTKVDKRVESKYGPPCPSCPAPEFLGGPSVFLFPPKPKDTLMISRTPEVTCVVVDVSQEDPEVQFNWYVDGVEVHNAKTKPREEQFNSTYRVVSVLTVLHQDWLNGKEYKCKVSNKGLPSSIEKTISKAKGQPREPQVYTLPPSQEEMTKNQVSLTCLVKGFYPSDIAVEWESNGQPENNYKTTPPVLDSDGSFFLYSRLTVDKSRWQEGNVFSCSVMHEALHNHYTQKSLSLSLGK
light: B1 light
notes: also called MoAb#2 (IgG4)
B3: MoAb #3 (OMS643), 17N16m_d17N9 IgG4 (mutant, S228P) (antibody)
heavy: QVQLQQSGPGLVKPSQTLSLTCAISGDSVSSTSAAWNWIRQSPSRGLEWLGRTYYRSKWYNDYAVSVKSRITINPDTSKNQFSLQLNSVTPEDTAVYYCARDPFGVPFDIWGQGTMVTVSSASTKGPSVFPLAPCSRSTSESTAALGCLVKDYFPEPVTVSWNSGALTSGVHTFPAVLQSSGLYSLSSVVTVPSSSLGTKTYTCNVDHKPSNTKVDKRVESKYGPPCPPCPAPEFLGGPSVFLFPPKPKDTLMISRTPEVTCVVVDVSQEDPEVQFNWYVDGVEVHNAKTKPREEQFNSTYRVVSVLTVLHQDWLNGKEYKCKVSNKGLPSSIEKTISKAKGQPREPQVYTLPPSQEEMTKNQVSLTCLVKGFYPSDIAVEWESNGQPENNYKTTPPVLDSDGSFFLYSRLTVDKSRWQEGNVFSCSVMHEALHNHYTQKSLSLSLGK
light: B1 light
notes: also called MoAb#3 (IgG4 mutant)
B4: 17D20 mother clone, wild type IgG4 format (antibody, V domains shown)
VH: QVTLKESGPVLVKPTETLTLTCTVSGFSLSRGKMGVSWIRQPPGKALEWLAHIFSSDEKSYRTSLKSRLTISKDTSKNQVVLTMTNMDPVDTATYYCARIRAGGIDYWGQGTLVTVSS
VL: QPVLTQPPSVSVSPGQTASITCSGDKLGDKFAYWYQQKPGHSPVLVIYQDNKRPSGIPGRFSGSNSGNTATLTISGTQAMDEADYYCQAWDSSTAVFGTGTKVTVLA
B5: scFv mutagenesis clone #35 of 17D20 (scFv)
scFv: QVTLKESGPVLVKPTETLTLTCTVSGFSLSRGKMGVSWIRQPPGKALEWLAHIFSSDEKSYRTSLKSRLTISKDTSKNQVVLTMTNMDPVDTATYYCARIRRGGIDYWGQGTLVTVSSKLSGSASAPKLEEGEFSEARVQPVLTQPPSVSVSPGQTASITCSGDKLGDKFAYWYQQKPGHSPVLVIYQDNKRPSGIPGRFSGSNSGNTATLTISGTQAMDEADYYCQAWDSSTAVFGTGTKVTVLAAAGSEQKLISEEDLNSHHHHHH
notes: the mother scFv entry is used with this change; also called 17D20md#35 (monomer); 17D20md35
B6: MoAb #4 (OMS644), 17D20_3521N11 IgG2 (antibody)
heavy: QVTLKESGPVLVKPTETLTLTCTVSGFSLSRGKMGVSWIRQPPGKALEWLAHIFSSDEKSYRTSLKSRLTISKDTSKNQVVLTMTNMDPVDTATYYCARIRRGGIDYWGQGTLVTVSSASTKGPSVFPLAPCSRSTSESTAALGCLVKDYFPEPVTVSWNSGALTSGVHTFPAVLQSSGLYSLSSVVTVPSSNFGTQTYTCNVDHKPSNTKVDKTVERKCCVECPPCPAPPVAGPSVFLFPPKPKDTLMISRTPEVTCVVVDVSHEDPEVQFNWYVDGVEVHNAKTKPREEQFNSTFRVVSVLTVVHQDWLNGKEYKCKVSNKGLPAPIEKTISKTKGQPREPQVYTLPPSREEMTKNQVSLTCLVKGFYPSDIAVEWESNGQPENNYKTTPPMLDSDGSFFLYSKLTVDKSRWQQGNVFSCSVMHEALHNHYTQKSLSLSPGK
light: QPVLTQPPSLSVSPGQTASITCSGEKLGDKYAYWYQQKPGQSPVLVMYQDKQRPSGIPERFSGSNSGNTATLTISGTQAMDEADYYCQAWDSSTAVFGGGTKLTVLGQPKAAPSVTLFPPSSEELQANKATLVCLISDFYPGAVTVAWKADSSPVKAGVETTTPSKQSNNKYAASSYLSLTPEQWKSHRSYSCQVTHEGSTVEKTVAPTECS

Legend:
human MASP-2 [1] = molecular target: T1, human MASP-2 (human, UniProt O00187 16-686); test: selectivity for human MASP-2 over C1s (method not detailed; see FIG. 16)
T1 construct: also called hMASP-2; recombinant human MASP-2

human MASP-2 [2] = molecular target: T1, human MASP-2; test: cell-based or functional assay
[3] = molecular target: African Green monkey MASP-2 (in African Green monkey serum) (African Green monkey); test: cell-based or functional assay
[4] = molecular target: rat MASP-2 (in rat serum) (rat, UniProt Q9JJS8 20-685); test: cell-based or functional assay
human MASP-2 [5] = molecular target: T1, human MASP-2; test: cell-based or functional assay; remark: listed apart in the source
human MASP-2 [6] = molecular target: T1, human MASP-2; test: cell-based or functional assay; remark: listed apart in the source
human MASP-2 [7] = molecular target: T1, human MASP-2; test: cell-based or functional assay; remark: listed apart in the source
human MASP-2 [8] = molecular target: T1, human MASP-2; test: titration ELISA on MASP-2 (10 µg/ml)

T1 sequence (O00187 16-686): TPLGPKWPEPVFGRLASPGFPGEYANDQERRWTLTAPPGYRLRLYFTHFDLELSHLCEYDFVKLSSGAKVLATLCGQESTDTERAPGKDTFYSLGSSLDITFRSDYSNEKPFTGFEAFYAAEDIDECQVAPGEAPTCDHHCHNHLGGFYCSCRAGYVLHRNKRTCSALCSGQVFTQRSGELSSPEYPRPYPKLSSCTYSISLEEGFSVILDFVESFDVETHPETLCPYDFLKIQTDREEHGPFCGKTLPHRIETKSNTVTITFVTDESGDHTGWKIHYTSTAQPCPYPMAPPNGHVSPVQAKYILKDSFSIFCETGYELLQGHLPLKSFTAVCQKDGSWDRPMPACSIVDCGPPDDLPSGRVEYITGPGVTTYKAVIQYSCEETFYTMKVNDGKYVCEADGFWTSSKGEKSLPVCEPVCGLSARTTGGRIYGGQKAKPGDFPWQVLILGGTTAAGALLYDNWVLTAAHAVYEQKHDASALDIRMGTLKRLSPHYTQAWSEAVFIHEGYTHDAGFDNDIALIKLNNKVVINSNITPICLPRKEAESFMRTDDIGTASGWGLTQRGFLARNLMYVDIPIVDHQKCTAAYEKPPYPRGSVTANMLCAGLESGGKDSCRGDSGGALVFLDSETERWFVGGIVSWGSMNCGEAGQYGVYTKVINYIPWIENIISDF
Sequence of rat MASP-2 (in rat serum) (Q9JJS8 other isoform, or with tags, fused parts or gaps limits assumed): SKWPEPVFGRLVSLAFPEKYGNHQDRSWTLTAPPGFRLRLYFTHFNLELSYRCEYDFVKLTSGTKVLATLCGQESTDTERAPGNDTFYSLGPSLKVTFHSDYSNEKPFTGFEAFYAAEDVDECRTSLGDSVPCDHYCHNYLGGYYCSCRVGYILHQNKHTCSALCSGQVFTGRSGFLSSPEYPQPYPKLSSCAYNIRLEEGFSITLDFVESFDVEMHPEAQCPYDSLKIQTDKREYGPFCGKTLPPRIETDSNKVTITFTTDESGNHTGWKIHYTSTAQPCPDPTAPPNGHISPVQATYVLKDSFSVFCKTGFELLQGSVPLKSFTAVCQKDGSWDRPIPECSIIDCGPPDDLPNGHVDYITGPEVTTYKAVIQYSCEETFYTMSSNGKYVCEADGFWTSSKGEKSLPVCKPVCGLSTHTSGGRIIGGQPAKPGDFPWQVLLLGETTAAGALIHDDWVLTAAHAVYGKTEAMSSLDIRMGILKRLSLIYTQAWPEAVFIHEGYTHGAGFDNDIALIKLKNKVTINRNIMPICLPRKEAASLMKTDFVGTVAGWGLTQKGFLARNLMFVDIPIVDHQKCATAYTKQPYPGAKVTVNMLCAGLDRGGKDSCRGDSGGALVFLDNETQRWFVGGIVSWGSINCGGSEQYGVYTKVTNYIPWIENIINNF

Binder	Selectivity over C1s (human MASP-2 [1]) [fold]	Human C3 Assay IC50, 90% human serum (human MASP-2 [2]) [nM]	Human C4 assay IC50, 90% human serum (human MASP-2 [2]) [nM]	African Green Monkey C3 assay IC50 [3] [nM]	Inhibition of Rat C3b IC50 [4] [nM]	further results
B1	> 5000	20	30	–	–	–
B2	> 5000	3	30	26	100	–
B3	> 5000	12	30	–	200	–
B4	–	–	–	–	–	C4b deposition in 90% human serum, IC50 relative to the C3b deposition assay (human MASP-2 [5]): ~3 fold; C3b deposition assay in 1% human serum, IC50 (human MASP-2 [6]): 22 nM; C3 convertase assay using 1% human serum, IC50 (first experiment) (human MASP-2 [7]): 7.39 nM; C3 convertase assay using 1% human serum, IC50 (second experiment) (human MASP-2 [7]): 10.3 nM
B5	–	–	–	–	–	Kd (human MASP-2 [8]): 1.2 nM
B6	–	–	–	18	–	–
